From US20260055369A1, “METHOD FOR GENERATING CELLS OF THE T CELL LINEAGE WITH ENGINEERING BROADLY REACTIVE HUMAN NOTCH LIGAND” (H. Lee Moffitt Cancer Center and Research Institute, Inc., priority 2022, published 2026)

Tests used:
[1] = tested on: full-length, cell surface-expressed Notch1; experiment: Tetramer binding to Notch1 overexpressing CHO-K1 N1-Gal4 cells by flow cytometry; conditions: tetramers
Excerpt: Extended Data FIG. 5. Quantitation of mNotch1 binding to DLL4 variants, ligand adsorption, and Notch surface expression. a, SPR binding isotherms were fitted to a 1:1 binding model to determine the binding affinity between mNotch1 (6-13) and each DLL4 variant. b, Determination of plate adsorption for WT DLL4 and Delta^MAX by ELISA. Data represent mean values±s.d. of three biological replicates. c, Binding assay of WT DLL4 and Delta^MAX tetramers to Notch1 overexpressing CHO-K1 N1-Gal4 cells was measured by flow cytometry. Data represent mean values±s.d. of three biological replicates. d, The level of Notch1 expression on the surface of cell lines used in this study was determined by flow cytometry. Data represent mean values±s.d. of three biological replicates. e, Percentage of CD8^+ T cells expressing Notch1 (upper graph) and Notch2 (bottom graph) on cell surface determined by flow cytometry after stimulation with K32-WT DLL4, K32-Delta^MAX, or K32 for 96 hours. Data represent mean values±s.e.m. of three biological replicates. Delta^MAX statistics are referred to WT DLL4. *P<0.05, ****P<0.0001 (Two-way ANOVA).

hNotch1 = experiment: Notch signaling assay using multiple ligand-presentation formats (U2OS hNotch1-Gal4 luciferase); assay type: cell-based, human
Sequence of hNotch1 (P46531 19-1664 limits assumed): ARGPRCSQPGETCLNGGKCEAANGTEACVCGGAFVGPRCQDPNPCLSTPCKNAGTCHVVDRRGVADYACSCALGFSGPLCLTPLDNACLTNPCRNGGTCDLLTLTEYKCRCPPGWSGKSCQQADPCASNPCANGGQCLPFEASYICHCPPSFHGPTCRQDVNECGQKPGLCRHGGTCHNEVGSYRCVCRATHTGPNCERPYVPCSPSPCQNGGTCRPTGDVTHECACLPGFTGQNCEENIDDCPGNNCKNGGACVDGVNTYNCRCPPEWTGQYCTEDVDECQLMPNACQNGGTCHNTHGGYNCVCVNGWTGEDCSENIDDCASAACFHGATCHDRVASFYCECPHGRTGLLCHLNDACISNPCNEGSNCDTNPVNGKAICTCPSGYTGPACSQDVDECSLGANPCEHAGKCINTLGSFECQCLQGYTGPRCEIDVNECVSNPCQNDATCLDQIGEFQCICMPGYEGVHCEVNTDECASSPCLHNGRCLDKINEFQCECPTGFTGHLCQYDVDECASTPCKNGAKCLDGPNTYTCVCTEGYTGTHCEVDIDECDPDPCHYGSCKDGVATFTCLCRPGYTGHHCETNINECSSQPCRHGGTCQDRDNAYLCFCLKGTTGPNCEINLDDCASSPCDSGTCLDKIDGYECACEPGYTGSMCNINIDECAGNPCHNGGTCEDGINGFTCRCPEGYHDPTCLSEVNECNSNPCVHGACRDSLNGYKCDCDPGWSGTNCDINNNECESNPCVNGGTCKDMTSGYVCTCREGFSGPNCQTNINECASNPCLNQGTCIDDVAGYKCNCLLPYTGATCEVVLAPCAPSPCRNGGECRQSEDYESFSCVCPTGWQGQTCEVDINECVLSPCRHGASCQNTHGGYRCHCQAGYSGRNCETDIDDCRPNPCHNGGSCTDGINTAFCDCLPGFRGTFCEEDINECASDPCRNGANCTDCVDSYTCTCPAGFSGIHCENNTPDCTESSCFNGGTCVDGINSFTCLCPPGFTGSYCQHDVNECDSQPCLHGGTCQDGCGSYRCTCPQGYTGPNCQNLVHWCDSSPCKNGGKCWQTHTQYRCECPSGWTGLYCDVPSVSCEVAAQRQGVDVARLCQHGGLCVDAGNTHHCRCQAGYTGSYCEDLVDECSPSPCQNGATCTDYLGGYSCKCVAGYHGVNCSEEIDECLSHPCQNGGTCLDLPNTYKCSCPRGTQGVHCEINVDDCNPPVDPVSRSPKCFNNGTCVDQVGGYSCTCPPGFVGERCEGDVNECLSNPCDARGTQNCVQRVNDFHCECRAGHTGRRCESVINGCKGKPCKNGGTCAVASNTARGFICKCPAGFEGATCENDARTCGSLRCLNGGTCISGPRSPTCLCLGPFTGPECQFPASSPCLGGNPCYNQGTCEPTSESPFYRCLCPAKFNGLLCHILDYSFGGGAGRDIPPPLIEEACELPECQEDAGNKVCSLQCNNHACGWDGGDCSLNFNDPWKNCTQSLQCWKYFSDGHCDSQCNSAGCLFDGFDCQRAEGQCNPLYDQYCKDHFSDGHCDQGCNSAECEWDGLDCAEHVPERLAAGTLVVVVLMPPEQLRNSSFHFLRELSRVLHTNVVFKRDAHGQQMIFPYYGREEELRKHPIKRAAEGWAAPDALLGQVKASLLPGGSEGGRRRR
Sequence of hNotch1 (P46531 1665-1756 limits assumed): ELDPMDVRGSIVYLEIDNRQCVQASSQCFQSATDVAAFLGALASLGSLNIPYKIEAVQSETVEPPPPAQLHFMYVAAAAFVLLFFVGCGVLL
Procedure: Notch activation was assayed in different formats (FIG. 14A) including (1) non-specific orientation (0.1 ng/mm^2 of Delta^MAX on well, FIG. 3A), (2) ligand-oriented coupling (10 nM of Delta^MAX on well, FIG. 3B), (3) magnetic beads coated with biotinylated Delta^MAX (ratio 1:20 reporter cells:beads, optimization of ratio is detailed in FIG. 14D), (4) HEK293T-expressing Delta^MAX (ratio 1:1, signal receivers:senders, optimization of ratio can be seen in FIG. 14C), and (5) yeast-expressing Delta^MAX (ratio 1:10, reporter:yeast, optimization of ratio is detailed in FIG. 14B). On day one, U2OS hNotch1-Gal4 cells were detached with trypsin-EDTA, counted in the microscope, and 5×10E5 cells/well transferred to 6-well tissue culture plates (Falcon). On day two, U2OS cells were transfected as described above. On day three, the different activation assays were set up at the same time. For ligand oriented-coupling, streptavidin plates were coated with 10 nM of Delta^MAX as described above. For non-specific adsorption, non-biotinylated Delta^MAX at 0.1 ng/mm was coated as described previously. For activation using streptavidin beads coated with biotinylated Delta^MAX, 200 mg of streptavidin beads (streptavidin MagneSphere paramagnetic particles, Promega) were washed 3 times with 200 μL of DPBS+0.1% BSA using a magnet (Miltenyi), and combined with 20 μg of biotinylated Delta^MAX for 1.5 hours at 4° C. Next, unbound Delta^MAX was washed out three times with 200 μL of DPBS+0.1% BSA, and 100 μL of complexed beads (pre-diluted 1/25 in DPBS) were added to wells. For co-culture activation with HEK293T-expressing Delta^MAX, cells were detached with trypsin-EDTA, quenched with DMEM media, washed with DPBS, and 100 μL containing 20,000 cells in DMEM were added to wells. For activation with yeast cells expressing Delta^MAX on surface, pYAL vector encoding for Delta^MAX (N-EGF5) was electroporated previously into yeast cells, and DLL4 expressed in SGCAA as previously described. Delta^MAX expression was induced 48 hours before Notch activation assay set up. One hundred microliters of yeast cells (2×10E6 cells/mL) in serum-free DMEM were added to the assay plate. Once all the wells contained the desired activation assays, U2OS reporter cells were detached with trypsin-EDTA, and 20,000 cells in 100 μL of DMEM were added per well. All the conditions were supplemented with 2 μg/mL of doxycycline to induce Notch1-Gal4 expression. The assay plate was incubated for 24 hours at 37° C. and 5% CO2. On day four, media was aspirated off and Luciferase Dual-Glo kit (Promega) used to detect firefly and Renilla signals in a luminometer (GloMax, Promega). Negative controls were BSA 0.5% for non-specific adsorption, streptavidin and BSA 2% for ligand oriented-coupling, uncoated streptavidin beads for activation with magnetic beads, HEK293T non-expressing DLL4 for co-culture activation, and yeast expressing PDL-1 ECD for co-culture with yeast. The expression of Delta^MAX in HEK293T and yeast cells was confirmed by flow cytometry (BD Accuri C6 plus) following staining for 1 hour at 4° C. with anti-hDLL4 PE antibody using DPBS+0.5% BSA, and selection buffer, respectively (FIG. 14E). Notch activation is represented as the mean fold-change over the corresponding control±s.d. of three independent biological replicates.

CD8+ T cells = experiment: Co-culture assay for T cell proliferation (K32 aAPCs expressing ligand); assay type: cell-based, human; conditions: along the OKT3 concentrations, 96 h, vs K32 lacking DLL4 ligands (mock)
Procedure: Functional assays for human CD8^+ T cells were performed in co-culture with K562 cells expressing human CD32 (K32 cells) generated as described before7. Briefly, cells were γ-irradiated (100Gy) and washed twice with PBS before being loaded with OKT3 (0.0125-0.5 μg/mL, BioXcell) antibody at RT for 10 min. Human CD8^+ T cells were negatively isolated from PBMC and labeled with 5 μM of Cell Trace Violet (Invitrogen) according to manufacturer's specifications. Next, CD8^+ T cells were co-cultured with K32 cells at ratio 1:10 (T cell:K32). The frequency of proliferating T cells was determined after 96 hours by flow cytometry using a CytoFLEX II (Beckman Coulter). Zombie Green (Biolegend) was used for life/dead cell staining to discard dead cells from the analysis. A set of samples were additionally incubated with Golgi stop (BD) at 0.5 μL/well for 5 hours and washed with PBS for detection of intracellular IFNγ using anti-hIFNγ APC antibody (Biolegend). The frequency of IFNγ positive cells was analyzed by flow cytometry (CytoFLEX II, Beckman Coulter). Dead cells were excluded from the analysis by staining with Zombie green (Biolegend). The data represent the mean percentage of proliferating T cells or IFNγ^+ T cells±s.e.m. of four independent biological replicates.

Sequence of full-length, cell surface-expressed Notch1 (P46531 19-1664 limits assumed): as the sequence (P46531 19-1664 limits assumed) above
Sequence of full-length, cell surface-expressed Notch1 (P46531 1665-1756 limits assumed): as the sequence (P46531 1665-1756 limits assumed) above

B1: Delta^MAX: engineered human DLL4 consensus variant with 10 mutations combining DLL4.v1 and DLL4.v2 mutations; sequence matches SEQ ID NO: 4/10 (protein)
chain: SSVFQLQLQEFINERGVLASGRPCEPGCRTFFRVCLKHFQAVVSPGPCTFGTVSTPVLGTNSFAVRDDSSGGGRNPLQLPLNFTWPGTFSLIIEAWHAPGDDLRPEALPPDALISKFAIQGSLAVGQNWLLDEQTSTLTRLRYSYRVICSDNYYGDNCSRLCKKRNDYFGHYVCQPDGNPSCLPGWTGEYCQQPICLSGCHEQNGYCSKPAECLCRPGWQGRLCNECIPHPGCRHGTCSTPWQCLCDEGWGGLYCDQDLNYCTHHSPCKNGATCRNSGPRSYTCTCRPGYTGVDCELELSECDSNPCRNGGSCKDQEDGYHCLCPPGYYGLHCEHSTLSCADSPCFNGGSCRERNQGANYACECPPNFTGSNCE
[1]
  increase of mean fluorescence intensity (MFI) of binding compared to WT DLL4: 4.7 fold
hNotch1; co-culture with HEK293T expressing ligand, ratio 1:1
  increase in Notch1 activation relative to controls: 15 fold
hNotch1; ligand-coated streptavidin magnetic beads, ratio 1:20 reporter cells:beads
  increase in Notch1 activation relative to controls: 21 fold
hNotch1; non-specific adsorption, 0.1 ng/mm^2
  increase in Notch1 activation relative to controls: 23 fold
hNotch1; oriented coupling on streptavidin plates, 10 nM
  increase in Notch1 activation relative to controls: 50 fold
hNotch1; yeast-displayed, ratio 1:10 reporter:yeast
  Notch1 activation relative to controls: did not induce a significant change

B2: WT DLL4: human wild-type Delta-like 4 (N-EGF5, residues 27-400), SEQ ID NO: 1 (protein)
chain: SGVFQLQLQEFINERGVLASGRPCEPGCRTFFRVCLKHFQAVVSPGPCTFGTVSTPVLGTNSFAVRDDSSGGGRNPLQLPFNFTWPGTFSLIIEAWHAPGDDLRPEALPPDALISKIAIQGSLAVGQNWLLDEQTSTLTRLRYSYRVICSDNYYGDNCSRLCKKRNDHFGHYVCQPDGNLSCLPGWTGEYCQQPICLSGCHEQNGYCSKPAECLCRPGWQGRLCNECIPHNGCRHGTCSTPWQCTCDEGWGGLFCDQDLNYCTHHSPCKNGATCSNSGQRSYTCTCRPGYTGVDCELELSECDSNPCRNGGSCKDQEDGYHCLCPPGYYGLHCEHSTLSCADSPCFNGGSCRERNQGANYACECPPNFTGSNCE
CD8+ T cells
  enhancement of the percentage of proliferating CD8+ T cells: did not show a significant improvement
